What all share (test): cell-based or functional assay
Experiment [1] deals with HIV-1 93IN905 envelope protein (Env) on pseudotyped virus (HIV-1 isolate 93IN905).
Experiment [2] addresses HIV-1 94UG103 envelope protein (Env) on pseudotyped virus (HIV-1 isolate 94UG103).
For experiment [3], the target named is HIV-1 JR-CSF envelope protein (Env) on pseudotyped virus (HIV-1 isolate JR-CSF) (UniProt P20871).
Experiment [4] concerns the target HIV-1 APV17 envelope glycoprotein (Env) on pseudovirus (HIV-1).
The target in experiment [5] is HIV-1 Env of isolate MG RM-AG-001 (HIV-1).
In experiment [6] the target is HIV-1 Env of isolate MG RM-AG-008 (HIV-1).
Experiment [7] deals with HIV-1 JRFL envelope glycoprotein (Env) on pseudovirus (HIV-1).
Experiment [8] deals with HIV-1 MGRM-AG-005 envelope glycoprotein (Env) on pseudovirus (HIV-1).
Experiment [9] concerns the target HIV-1 92UG005 Env (on pseudovirus) (HIV-1).
Experiment [10] deals with HIV-1 92UG024 Env (on pseudovirus) (HIV-1).
Experiment [11] concerns the target HIV-1 93IN905 Env (on pseudovirus) (HIV-1).
Experiment [12] addresses HIV-1 APV13 Env (on pseudovirus) (HIV-1).
Experiment [13] concerns the target HIV-1 APV17 Env (on pseudovirus) (HIV-1).
Experiment [14] has as its target HIV-1 CMU02 Env (on pseudovirus) (HIV-1).
Experiment [15] concerns the target HIV-1 JRCSF Env (on pseudovirus) (HIV-1) (UniProt P20871).
Experiment [16] concerns the target HIV-1 JRFL Env (on pseudovirus) (HIV-1).
In experiment [17] the target is HIV-1 MGRM-C-027 Env (on pseudovirus) (HIV-1).
In experiment [18] the target is HIV-1 NL43 Env (on pseudovirus) (HIV-1).
Experiment [19] deals with HIV-1 envelope glycoprotein (Env) of isolate MGRM-C-014, on pseudovirus (HIV-1).
Experiment [20] concerns the target HIV-1 envelope glycoprotein (Env) of isolate MGRM-C-015, on pseudovirus (HIV-1).
For experiment [21], the target named is HIV-1 envelope glycoprotein (Env) of isolate MGRM-C-017, on pseudovirus (HIV-1).
Experiment [22] has as its target HIV-1 envelope glycoprotein (Env) of isolate MGRM-C-019, on pseudovirus (HIV-1).
Experiment [23] has as its target HIV-1 envelope glycoprotein (Env) of isolate MGRM-C-023, on pseudovirus (HIV-1).
The target in experiment [24] is HIV-1 envelope glycoprotein (Env) of isolate MGRM-C-025, on pseudovirus (HIV-1).
Experiment [25] concerns the target HIV-1 envelope glycoprotein (Env) of isolate MGRM-C-026, on pseudovirus (HIV-1).
For experiment [26], the target named is HIV-1 envelope glycoprotein (Env) of isolate MGRM-C-028, on pseudovirus (HIV-1).
Experiment [27] has as its target aMLV envelope protein (on pseudovirus, negative control) (aMLV).
Experiment [28] has as its target HIV-1 Env of isolate MGRM-D-026 (HIV-1).
For experiment [29], the target named is HIV-1 Env of isolate MGRM-F1-010 (HIV-1).
The target in experiment [30] is HIV-1 Env of isolate MGRM-F1-012 (HIV-1).
In experiment [31] the target is HIV-1 APV-6 envelope glycoprotein (Env) on pseudovirus (HIV-1).

Sequence of PGT-142 (4995_E20) (antibody) (VH): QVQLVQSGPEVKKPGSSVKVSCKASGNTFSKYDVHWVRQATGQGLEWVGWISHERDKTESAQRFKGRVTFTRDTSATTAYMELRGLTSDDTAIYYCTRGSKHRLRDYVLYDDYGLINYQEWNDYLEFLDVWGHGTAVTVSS
Sequence of PGT-142 (4995_E20) (antibody) (VL): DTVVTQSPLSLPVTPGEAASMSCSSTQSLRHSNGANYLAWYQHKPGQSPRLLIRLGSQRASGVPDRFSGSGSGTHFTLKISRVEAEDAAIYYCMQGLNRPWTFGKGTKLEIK
Sequence of PGT-141 (4964_G22; 4993_K13) (antibody) (VH): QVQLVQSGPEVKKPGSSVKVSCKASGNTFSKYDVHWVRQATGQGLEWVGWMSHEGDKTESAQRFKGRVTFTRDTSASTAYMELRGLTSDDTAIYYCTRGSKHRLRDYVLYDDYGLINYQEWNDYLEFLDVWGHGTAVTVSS
Sequence of PGT-143 (4980_N08) (antibody) (VH): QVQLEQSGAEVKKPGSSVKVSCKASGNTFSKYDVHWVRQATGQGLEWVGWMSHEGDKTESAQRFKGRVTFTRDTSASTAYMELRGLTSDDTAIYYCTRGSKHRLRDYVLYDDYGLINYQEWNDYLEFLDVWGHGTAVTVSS
Sequence of PGT-143 (4980_N08) (antibody) (VL): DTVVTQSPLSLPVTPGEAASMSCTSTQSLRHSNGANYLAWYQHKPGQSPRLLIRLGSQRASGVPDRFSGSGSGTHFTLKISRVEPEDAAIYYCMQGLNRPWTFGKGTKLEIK
Sequence of PGT-144 (4970_K22) (antibody) (VH): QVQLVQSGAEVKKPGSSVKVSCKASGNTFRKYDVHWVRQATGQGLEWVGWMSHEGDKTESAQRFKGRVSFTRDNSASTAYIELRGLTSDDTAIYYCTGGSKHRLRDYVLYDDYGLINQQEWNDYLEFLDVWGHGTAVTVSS
Sequence of PGT-144 (4970_K22) (antibody) (VL): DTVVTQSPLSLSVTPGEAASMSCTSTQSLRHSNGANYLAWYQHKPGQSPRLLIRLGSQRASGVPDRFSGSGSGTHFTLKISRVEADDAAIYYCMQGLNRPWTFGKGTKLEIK

For 1495_C14 (PGC14) (antibody), the IC50, pseudovirus neutralization, 1 hour Virus/Ab Incubation in experiment [1], in [2] and in experiment [3] was above 50 µg/mL in each case. Moreover, the IC50, pseudovirus neutralization, 18 hour Virus/Ab Incubation is 0.146 µg/mL in experiment [1], above 50 µg/mL in experiment [2] and above 50 µg/mL in experiment [3].

In experiment [4], 4858_P08 (PGT-123) (antibody) returned an IC50 (ug/ml), neutralizing activity of 0.18 µg/mL; an IC50, pseudovirus neutralization of 0.18 µg/mL; an IC80, pseudovirus neutralization of 0.539 µg/mL; an IC90 (pseudovirus neutralization) of 1.01 µg/mL. For the same substance, in experiment [4], the IC95, pseudovirus neutralization was determined as 1.75 µg/mL. In [5], this substance had a neutralization IC50 of 2.51 µg/mL. The substance further showed a neutralization IC50 in [6] of 19.2 µg/mL. In experiment [7], this substance registered an IC50 (ug/ml), neutralizing activity of 0.0283 µg/mL; an IC50, pseudovirus neutralization of 0.0283 µg/mL; an IC80, pseudovirus neutralization of 0.0904 µg/mL; an IC90 (pseudovirus neutralization) of 0.178 µg/mL. The same substance displayed an IC95, pseudovirus neutralization in experiment [7] of 0.332 µg/mL. In experiment [8], the IC50 (ug/ml), neutralizing activity came out at 0.104 µg/mL; the IC50, pseudovirus neutralization stood at 0.104 µg/mL; the IC80, pseudovirus neutralization amounted to 1.28 µg/mL; the IC90 (pseudovirus neutralization) turned out to be 6.38 µg/mL. Also, the IC95, pseudovirus neutralization in experiment [8] is above 10 µg/mL.

For 4877_D15 (PGT-122) (antibody), the IC50 (ug/ml), neutralizing activity is 0.522 µg/mL in [4], 0.0471 µg/mL in [7] and above 10 µg/mL in [8]. Further, the neutralization IC50 in experiment [5] is 14.5 µg/mL; in [6] it was above 50 µg/mL.

Take 5123_A06 (PGT-125) (antibody): the IC50 (ug/ml), neutralizing activity is 7.31 µg/mL in experiment [4], 0.0156 µg/mL in [7] and above 10 µg/mL in experiment [8]. Besides, the neutralization IC50 in experiment [4] is 7.31 µg/mL; in experiment [5], above 50 µg/mL; in experiment [6], above 50 µg/mL; in [7] it was 0.0156 µg/mL; in [8], above 10 µg/mL. The neutralization IC80 in [4] was above 10 µg/mL; in experiment [7], 0.0462 µg/mL; in [8] it was above 10 µg/mL. The results for the neutralization IC90 in experiment [4], in experiment [7] and in [8] were above 10 µg/mL, 0.0873 µg/mL and above 10 µg/mL, respectively. The neutralization IC95 is above 10 µg/mL in experiment [4], 0.157 µg/mL in [7] and above 10 µg/mL in [8].

Consider 5141_B17 (PGT-126) (antibody), for which the IC50 (ug/ml), neutralizing activity came to 0.501 µg/mL in experiment [4], 0.014 µg/mL in experiment [7] and 1.35 µg/mL in experiment [8]. Also, the neutralization IC50 in experiment [5] and in experiment [6] was above 50 µg/mL in each case.

Take 5145_B14 (PGT-127) (antibody): the neutralization IC50 in experiment [5] and in experiment [6] was above 50 µg/mL in each case.

As to 5147_N06 (PGT-130) (antibody), the IC50 (ug/ml), neutralizing activity in [4] was above 10 µg/mL; in experiment [7] it was 0.0346 µg/mL; in experiment [8], 0.947 µg/mL.

With PGT-141 (4964_G22; 4993_K13) (antibody), the IC50 (ug/ml), pseudovirus neutralization in [9] was above 10 µg/mL; in experiment [10], above 10 µg/mL; in experiment [11] it was 0.0016 µg/mL; in experiment [12], above 10 µg/mL; in [13], 0.616 µg/mL; in [14], above 10 µg/mL. The IC50 (ug/ml), pseudovirus neutralization in experiment [15] is 0.0047 µg/mL; in experiment [16], above 10 µg/mL; in experiment [17] it was 0.822 µg/mL; in experiment [18], 0.856 µg/mL; in experiment [27], above 10 µg/mL. Besides, the IC50, pseudovirus neutralization in experiment [19] amounted to 11.8 µg/mL; in experiment [20], 0.033 µg/mL; in experiment [21], 4.02 µg/mL; in [22], 0.008 µg/mL; in experiment [23], 0.153 µg/mL; in experiment [24] it was 0.247 µg/mL. Besides, the IC50, pseudovirus neutralization in experiment [25] was above 50 µg/mL; in experiment [26], 13.8 µg/mL.

For PGT-142 (4995_E20) (antibody), the IC50 (ug/ml), pseudovirus neutralization is above 10 µg/mL in experiment [9]; above 10 µg/mL in [10]; 0.0017 µg/mL in experiment [11]; above 10 µg/mL in [12]; 0.393 µg/mL in [13]; above 10 µg/mL in experiment [14]. The IC50 (ug/ml), pseudovirus neutralization was 0.0085 µg/mL in experiment [15]; above 10 µg/mL in experiment [16]; 0.272 µg/mL in [17]; 0.712 µg/mL in experiment [18]; above 10 µg/mL in [27]. The IC50, pseudovirus neutralization was found to be 6.02 µg/mL in experiment [19]; 0.038 µg/mL in [20]; 1.11 µg/mL in [21]; 0.003 µg/mL in experiment [22]; 0.087 µg/mL in experiment [23]; 0.183 µg/mL in experiment [24]. The values for the IC50, pseudovirus neutralization in [25] and in experiment [26] were above 50 µg/mL and 2.12 µg/mL, respectively.

Turning to PGT-143 (4980_N08) (antibody), the IC50 (ug/ml), pseudovirus neutralization in experiment [9] is above 10 µg/mL; in experiment [10], above 10 µg/mL; in experiment [11], 0.0021 µg/mL; in experiment [12], above 10 µg/mL; in experiment [13], 0.618 µg/mL; in experiment [14] it was above 10 µg/mL. The IC50 (ug/ml), pseudovirus neutralization in experiment [15] is 0.0064 µg/mL; in experiment [16], above 10 µg/mL; in experiment [17] it was 0.505 µg/mL; in experiment [18], 0.585 µg/mL; in experiment [27], above 10 µg/mL. Besides, the IC50, pseudovirus neutralization in experiment [19] came to 8.81 µg/mL; in experiment [20] it was 0.085 µg/mL; in [21] it was 5.17 µg/mL; in experiment [22], 0.004 µg/mL; in [23], 0.148 µg/mL; in experiment [24] it was 0.336 µg/mL. The IC50, pseudovirus neutralization in experiment [25] is above 50 µg/mL; in experiment [26] it was 12.4 µg/mL.

In the case of PGT-144 (4970_K22) (antibody), the IC50 (ug/ml), pseudovirus neutralization is above 10 µg/mL in experiment [9]; above 10 µg/mL in experiment [10]; 0.158 µg/mL in experiment [11]; above 10 µg/mL in experiment [12]; 5.12 µg/mL in experiment [13]; above 10 µg/mL in experiment [14]. Further, the IC50 (ug/ml), pseudovirus neutralization in [15] was 0.128 µg/mL; in experiment [16] it was above 10 µg/mL; in experiment [17] it was above 10 µg/mL; in experiment [18] it was above 10 µg/mL; in experiment [27] it was above 10 µg/mL. Also, the IC50, pseudovirus neutralization is above 50 µg/mL in [19]; 0.236 µg/mL in experiment [20]; 23 µg/mL in [21]; 0.513 µg/mL in [22]; 0.38 µg/mL in [23]; 17.6 µg/mL in experiment [24]. Also, the IC50, pseudovirus neutralization in experiment [25] and in experiment [26] was above 50 µg/mL in each case.

Turning to VRC01 (antibody), the IC50, pseudovirus neutralization in experiment [28] is 0.435 µg/mL; in experiment [29], 0.097 µg/mL; in experiment [30], 0.488 µg/mL; in experiment [19], above 50 µg/mL; in experiment [20] it was 1.57 µg/mL; in experiment [21], 0.366 µg/mL. Besides, the IC50, pseudovirus neutralization was found to be 1.13 µg/mL in [22]; 0.077 µg/mL in [23]; 2.36 µg/mL in [24]; 0.707 µg/mL in experiment [25]; 0.319 µg/mL in experiment [26].

Substance b12 (antibody) displayed an IC90 (pseudovirus neutralization) in experiment [31] above 50 µg/mL.

The values are drawn from US20200024330A1.
